The text below walks through data of patent US20260232824A1 (published 2026).

Common to all, as to assay: SPR; antibody captured in bivalent format
(In general: Surface plasmon resonance follows binding to a sensor surface in real time, without labels.)

Assay [1] addresses T1, His-tagged rhesus CD180 from Creative Biomart (CD180-1598R) (rhesus, UniProt F7GX75 24-626).
T1 chain: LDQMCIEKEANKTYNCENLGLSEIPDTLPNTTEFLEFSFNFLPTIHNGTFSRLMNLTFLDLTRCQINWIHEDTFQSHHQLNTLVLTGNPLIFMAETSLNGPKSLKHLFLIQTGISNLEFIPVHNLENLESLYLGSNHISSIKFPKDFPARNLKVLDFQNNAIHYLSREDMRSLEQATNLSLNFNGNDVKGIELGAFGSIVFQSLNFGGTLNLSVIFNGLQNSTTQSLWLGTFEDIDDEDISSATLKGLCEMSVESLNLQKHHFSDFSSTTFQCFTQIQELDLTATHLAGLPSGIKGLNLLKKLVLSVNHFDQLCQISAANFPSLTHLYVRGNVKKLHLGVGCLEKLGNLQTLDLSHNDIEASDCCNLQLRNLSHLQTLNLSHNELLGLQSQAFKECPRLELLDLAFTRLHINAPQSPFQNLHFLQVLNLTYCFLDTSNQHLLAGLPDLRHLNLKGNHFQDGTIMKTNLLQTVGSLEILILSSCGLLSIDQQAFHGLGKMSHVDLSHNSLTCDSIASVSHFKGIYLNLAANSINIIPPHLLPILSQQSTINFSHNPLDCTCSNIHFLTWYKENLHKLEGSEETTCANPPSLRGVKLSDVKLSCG

Assay [2] concerns the target T2, human CD180 extracellular domain (ECD) HIS-tagged protein (Creative Biomart, CD180-3900H) (human, UniProt Q99467 24-626).
T2 chain: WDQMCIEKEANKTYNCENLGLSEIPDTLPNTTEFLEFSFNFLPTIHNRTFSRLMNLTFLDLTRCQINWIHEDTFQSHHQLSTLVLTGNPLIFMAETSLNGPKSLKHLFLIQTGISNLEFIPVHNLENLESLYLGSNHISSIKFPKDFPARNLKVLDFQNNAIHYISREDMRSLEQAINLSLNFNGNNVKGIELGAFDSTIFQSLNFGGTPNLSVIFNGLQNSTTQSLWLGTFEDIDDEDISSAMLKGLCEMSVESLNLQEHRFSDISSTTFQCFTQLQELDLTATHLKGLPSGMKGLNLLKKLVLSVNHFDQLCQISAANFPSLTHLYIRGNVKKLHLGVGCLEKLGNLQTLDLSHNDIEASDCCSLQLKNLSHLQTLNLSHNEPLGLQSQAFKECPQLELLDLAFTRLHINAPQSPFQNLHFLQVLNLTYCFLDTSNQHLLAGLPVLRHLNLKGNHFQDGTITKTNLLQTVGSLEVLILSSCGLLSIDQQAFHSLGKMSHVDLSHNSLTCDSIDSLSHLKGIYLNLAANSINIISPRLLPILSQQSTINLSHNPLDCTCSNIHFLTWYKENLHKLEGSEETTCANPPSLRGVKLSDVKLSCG

For assay [3], the target named is T3, human CD180 extracellular domain (ECD) HIS-tagged protein (Sino Biological, 11370-H08H) (human, UniProt Q99467 24-626).
T3 chain: T2 chain

B1: Ab-007 (antibody, V domains shown)
VH: EVQLVESGGGVVRPGGSLRLSCAASGFTFDDYAMSWVRQAPGKGLEWVSDINWNGGTTSYADSVKGRFTISRDNAKNSLFLQMNSLRAEDTALYYCARKGRDTVVVKGYYYFSYYMDVWGKGSTVTVSS
VL: not shown
Turning to B1, the Kd in assay [1] was 0.05 nM; in assay [2], 4.7 nM; in assay [3] it was 3.4 nM.

B2: Ab-006 (antibody, V domains shown)
VH: EVQLVESGGGLVKPGGSLRLSCTASGFTFDDYDMTWVRQAPGKGLEWVSGINWNGGNTDYADSVKGRFTISRDNTKNSLYLQMNSLRAEDTALYYCARKGRDIVVVKGFYYHYYYMDVWGKGITVTVSS
VL: not shown
For the molecule B2, the values for the Kd in assay [1], in assay [2] and in assay [3] were 0.4 nM, 12 nM and 6.8 nM, respectively.
